Data taken from publication PMC3651781.

T1: His-Dis3l2 D389N (mouse, UniProt Q8CI75 1-870, D389N)
T1 sequence: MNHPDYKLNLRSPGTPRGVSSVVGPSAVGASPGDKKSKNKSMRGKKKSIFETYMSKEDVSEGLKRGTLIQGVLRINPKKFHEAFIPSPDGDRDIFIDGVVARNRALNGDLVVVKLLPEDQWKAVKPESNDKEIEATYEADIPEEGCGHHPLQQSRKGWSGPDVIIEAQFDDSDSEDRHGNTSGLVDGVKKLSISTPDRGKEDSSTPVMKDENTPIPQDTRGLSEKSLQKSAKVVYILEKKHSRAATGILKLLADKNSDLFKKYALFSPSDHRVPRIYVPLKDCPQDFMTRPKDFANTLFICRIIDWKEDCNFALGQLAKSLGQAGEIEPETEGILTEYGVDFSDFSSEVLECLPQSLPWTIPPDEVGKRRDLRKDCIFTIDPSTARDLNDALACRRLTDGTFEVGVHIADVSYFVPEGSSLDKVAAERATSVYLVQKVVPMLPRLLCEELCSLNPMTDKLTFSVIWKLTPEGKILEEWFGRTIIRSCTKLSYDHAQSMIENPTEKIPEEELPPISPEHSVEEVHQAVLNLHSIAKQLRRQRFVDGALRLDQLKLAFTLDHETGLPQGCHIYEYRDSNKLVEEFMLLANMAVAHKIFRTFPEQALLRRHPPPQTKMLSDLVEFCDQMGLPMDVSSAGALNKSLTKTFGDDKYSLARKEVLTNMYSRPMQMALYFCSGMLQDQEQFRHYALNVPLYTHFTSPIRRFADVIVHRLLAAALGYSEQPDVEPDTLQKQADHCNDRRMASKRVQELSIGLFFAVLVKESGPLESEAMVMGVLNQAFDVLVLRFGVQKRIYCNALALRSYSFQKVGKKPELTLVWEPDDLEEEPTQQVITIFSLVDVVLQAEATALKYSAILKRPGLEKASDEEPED


Target: T1, His-Dis3l2 D389N
Test: EMSA

Binder | binding result
mmu-pre-let-7a-1 (structured_RNA) RNA: UGAGGUAGUAGGUUGUAUAGUUUUAGGGUCACACCCACCACUGGGAGAUAACUAUACAAUCUACUGUCUUUCC | no binding
mmu-pre-let-7a-1+14U (structured_RNA) RNA: UGAGGUAGUAGGUUGUAUAGUUUUAGGGUCACACCCACCACUGGGAGAUAACUAUACAAUCUACUGUCUUUCCUUUUUUUUUUUUUU | binds
